Results taken from paper PMC6321010, “Interaction of the GTPase Elongation Factor Like-1 with the Shwachman-Diamond Syndrome Protein and Its Missense Mutations” (International Journal of Molecular Sciences, 2018).

Assays:
Experiment in all cases: fluorescence polarisation; fluorescence anisotropy; 2 µL additions of 40-90 µM human EFL1 titrated into 300 µL of 0.1 µM Lumio Green-labelled human SBDS-FlAsH construct; 25 °C; 50 mM Tris-HCl pH 8, 300 mM NaCl, 5 mM β-mercaptoethanol; fitted to a single-site or a two different binding sites model
Conditions in all cases: both partners purified
[1] = target: T1, human SBDS R19Q with C-terminal FlAsH tag, labelled with Lumio Green (human, UniProt Q9Y3A5 1-250, R19Q, Lumio Green dye (4',5'-bis(1,3,2-dithioarsolan-2-yl) fluorescein) on the C-terminal FlAsH tag)
T1 construct: human SBDS, SDS disease surface missense variant R19Q (domain 1), in the three-domain protein; Missense variant found in patients; source: E. coli C41 (pRSET plasmid), purified by conventional chromatographic techniques; not shown: FlAsH tag (Cys-Cys-Pro-Gly-Cys-Cys), C-terminal, kept
T1 sequence (looked up): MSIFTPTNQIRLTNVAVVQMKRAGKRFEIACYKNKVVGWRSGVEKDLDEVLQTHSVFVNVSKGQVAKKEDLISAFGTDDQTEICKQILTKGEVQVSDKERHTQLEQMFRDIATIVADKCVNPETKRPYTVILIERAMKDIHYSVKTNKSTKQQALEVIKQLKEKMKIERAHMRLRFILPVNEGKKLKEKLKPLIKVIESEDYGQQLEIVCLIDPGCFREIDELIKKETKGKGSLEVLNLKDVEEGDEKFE

[2] = target: T2, human SBDS I167T with C-terminal FlAsH tag, labelled with Lumio Green (human, UniProt Q9Y3A5 1-250, I167T, Lumio Green dye (4',5'-bis(1,3,2-dithioarsolan-2-yl) fluorescein) on the C-terminal FlAsH tag)
T2 construct: human SBDS, SDS disease surface missense variant I167T (domain 2), in the three-domain protein; Missense variant found in patients; source: E. coli C41 (pRSET plasmid), purified by conventional chromatographic techniques; not shown: FlAsH tag (Cys-Cys-Pro-Gly-Cys-Cys), C-terminal, kept
T2 sequence (looked up): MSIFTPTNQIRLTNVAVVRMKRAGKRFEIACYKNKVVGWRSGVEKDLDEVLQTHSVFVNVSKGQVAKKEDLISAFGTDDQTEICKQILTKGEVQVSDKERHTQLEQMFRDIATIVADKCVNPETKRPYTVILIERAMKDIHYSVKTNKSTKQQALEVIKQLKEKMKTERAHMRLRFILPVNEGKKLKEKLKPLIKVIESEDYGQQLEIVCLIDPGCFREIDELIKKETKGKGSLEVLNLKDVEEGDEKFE

[3] = target: T3, human SBDS R126T with C-terminal FlAsH tag, labelled with Lumio Green (human, UniProt Q9Y3A5 1-250, R126T, Lumio Green dye (4',5'-bis(1,3,2-dithioarsolan-2-yl) fluorescein) on the C-terminal FlAsH tag)
T3 construct: human SBDS, SDS disease surface missense variant R126T (domain 2), in the three-domain protein; Missense variant found in patients; source: E. coli C41 (pRSET plasmid), purified by conventional chromatographic techniques; not shown: FlAsH tag (Cys-Cys-Pro-Gly-Cys-Cys), C-terminal, kept
T3 sequence (looked up): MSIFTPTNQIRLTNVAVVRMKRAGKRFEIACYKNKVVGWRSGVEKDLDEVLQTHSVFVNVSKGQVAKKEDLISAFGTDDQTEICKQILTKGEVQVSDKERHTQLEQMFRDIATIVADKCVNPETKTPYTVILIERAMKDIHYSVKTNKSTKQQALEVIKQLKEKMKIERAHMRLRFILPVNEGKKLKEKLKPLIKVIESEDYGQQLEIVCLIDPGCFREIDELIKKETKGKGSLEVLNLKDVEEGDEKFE

[4] = target: T4, human SBDS wild type with C-terminal FlAsH tag, labelled with Lumio Green (human, UniProt Q9Y3A5 1-250, Lumio Green dye (4',5'-bis(1,3,2-dithioarsolan-2-yl) fluorescein) on the C-terminal FlAsH tag)
T4 construct: human SBDS, wild type, called the full-length protein; also called SBDS-FlAsH; Shwachman-Bodian-Diamond Syndrome protein; source: E. coli C41 (pRSET plasmid), purified by conventional chromatographic techniques; not shown: FlAsH tag (Cys-Cys-Pro-Gly-Cys-Cys), C-terminal, kept
T4 sequence (looked up): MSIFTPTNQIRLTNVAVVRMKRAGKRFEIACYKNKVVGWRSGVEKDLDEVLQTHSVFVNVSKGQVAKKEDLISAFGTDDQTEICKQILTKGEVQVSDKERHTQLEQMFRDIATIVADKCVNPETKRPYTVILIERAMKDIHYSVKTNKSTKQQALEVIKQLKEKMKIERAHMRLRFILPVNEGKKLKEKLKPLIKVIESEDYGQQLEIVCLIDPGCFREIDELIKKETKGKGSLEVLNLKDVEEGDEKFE

- Kd1 (first binding site, two different binding sites model) [1]: 4.2 ± 0.5 µM
- Kd2 (second binding site, two different binding sites model) [1]: 5.2 ± 0.3 µM
- Kd1 (first binding site, two different binding sites model) [2]: 10 ± 3 µM
- Kd2 (second binding site, two different binding sites model) [2]: 1.4 ± 0.2 µM
- Kd1 (first binding site, two different binding sites model) [3]: 9.3 ± 1.7 µM
- Kd2 (second binding site, two different binding sites model) [3]: 2.5 ± 0.2 µM
- Kd1 (first binding site, two different binding sites model) [4]: 5.4 ± 1 µM
- Kd2 (second binding site, two different binding sites model) [4]: 0.4 ± 0.04 µM
B1: human Elongation Factor Like-1 (EFL1) (enzyme)
chain: MVLNSLDKMIQLQKNTANIRNICVLAHVDHGKTTLADCLISSNGIISSRLAGKLRYMDSREDEQIRGITMKSSAISLHYATGNEEYLINLIDSPGHVDFSSEVSTAVRICDGCIIVVDAVEGVCPQTQAVLRQAWLENIRPVLVINKIDRLIVELKFTPQEAYSHLKNILEQINALTGTLFTSKVLEERAERETESQVNPNSEQGEQVYDWSTGLEDTDDSHLYFSPEQGNVVFTSAIDGWGFGIEHFARIYSQKIGIKKEVLMKTLWGDYYINMKAKKIMKGDQAKGKKPLFVQLILENIWSLYDAVLKKDKDKIDKIVTSLGLKIGAREARHSDPKVQINAICSQWLPISHAVLAMVCQKLPSPLDITAERVERLMCTGSQTFDSFPPETQALKAAFMKCGSEDTAPVIIFVSKMFAVDAKALPQNKPRPLTQEEIAQRRERARQRHAEKLAAAQGQAPLEPTQDGSAIETCPKGEEPRGDEQQVESMTPKPVLQEENNQESFIAFARVFSGVARRGKKIFVLGPKYSPLEFLRRVPLGFSAPPDGLPQVPHMAYCALENLYLLMGRELEYLEEVPPGNVLGIGGLQDFVLKSATLCSLPSCPPFIPLNFEATPIVRVAVEPKHPSEMPQLVKGMKLLNQADPCVQILIQETGEHVLVTAGEVHLQRCLDDLKERFAKIHISVSEPIIPFRETITKPPKVDMVNEEIGKQQKVAVIHQMKEDQSKIPEGIQVDSDGLITITTPNKLATLSVRAMPLPEEVTQILEENSDLIRSMEQLTSSLNEGENTHMIHQKTQEKIWEFKGKLEQHLTGRRWRNIVDQIWSFGPRKCGPNILVNKSEDFQNSVWTGPADKASKEASRYRDLGNSIVSGFQLATLSGPMCEEPLMGVCFVLEKWDLSKFEEQGASDLAKEGQEENETCSGGNENQELQDGCSEAFEKRTSQKGESPLTDCYGPFSGQLIATMKEACRYALQVKPQRLMAAMYTCDIMATGDVLGRVYAVLSKREGRVLQEEMKEGTDMFIIKAVLPVAESFGFADEIRKRTSGLASPQLVFSHWEIIPSDPFWVPTTEEEYLHFGEKADSENQARKYMNAVRKRKGLYVEEKIVEHAEKQRTLSKNK
notes: human EFL1, GTPase, said to comprise 1120 residues; the expressed protein is fused to a TEV recognition site and a hexahistidine tag at the C-terminus; also called human EFL1; GTPase Elongation Factor Like-1; source: S. cerevisiae BCY123 (pRS426 backbone, GAL1/10 promoter), purified
